Measurements from the Human Domainome abundance scans (Beltran et al. 2025).

B1: POU domain, class 3, transcription factor 2, residues 262 to 338; numbered along this chain, P20265 (parent)
chain: EDTPTSDDLEQFAKQFKQRRIKLGFTQADVGLALGTLYGNVFSQTTICRFEALQLSFKNMCKLKPLLNKWLEEADSS

Variants of: B1
Experiment: abundance fitness (aPCA) (normalised: wild type 0, dead -1); higher = more abundant; growth selection in yeast, the domain comes from the species named
Settings: Homo sapiens

Abundance fitness of substitutions, site by site:
G31: V -0.113, I -0.399, R -0.383, M -0.291, E -0.224, K -0.383, A 0.047, W -0.207, N -0.44, S 0.025, H -0.287, P -0.648, Y -0.213, L -0.59, Q -0.188, C -0.009, T -0.096, F -0.39, D -0.385
G39: Y -0.533, C -0.528, E -0.207, F -0.621, N -0.012, S -0.321, H -0.19, I -0.808, V -0.897, M -0.624, P -0.023, A -0.314, D -0.079, K -0.219, T -0.325, R -0.25, L -0.754, W -0.715
T36: W -0.33, M -0.11, E 0.056, P -0.137, N 0.052, F -0.342, L -0.194, R 0.012, I -0.184, G -0.079, S 0.042, A -0.021, C -0.156, Q -0.038, H 0.015, Y 0.026
L37: T 0.048, S -0.093, A -0.023, V -0.042, Y -0.157, H -0.194, I 0.063, P -0.293, F -0.053, G -0.328, C -0.031, E -0.012, Q -0.027, D -0.118, W -0.201, N -0.121
Y38: W -0.341, L -0.41, T 0.032, G -0.074, A -0.069, I -0.298, C -0.065, F -0.036, P -0.36, N -0.043, M -0.331, Q -0.141, K -0.234, E -0.199, H -0.029, S -0.012, V -0.103, D -0.036, R -0.27
V30: R -0.979, A -0.23, I -0.235, W -0.793, L -0.306, S -1, G -0.776, H -0.529, Y -0.652, D -0.794, N -0.381, P -0.569, Q -1.11, C -0.176, M -0.655, T -0.501, F -0.552
A28: W -0.301, K 0.067, T -0.198, P -0.811, R -0.058, V -0.204, H -0.116, D -0.182, Y -0.117, L -0.196, S -0.086, Q -0.094, M -0.208, C -0.165, E 0.035, F -0.452, N -0.019
F25: V -0.216, A -0.183, H -0.266, D -0.749, C -0.192, P -0.837, Y 0.041, E -0.773, K -0.072, N -0.709, L -0.08, R -0.321, G -0.983, Q -0.431, I -0.096, W -0.149, S -0.513, M -0.107, T -0.632
N40: T -0.063, A -0.055, E 0.108, R 0.023, S 0.022, M -0.107, W -0.281, Q 0.069, K -0.016, G 0.035, Y -0.007, L -0.173, I -0.045, F -0.173, C 0.028, H 0.06, P -0.005, D 0.016
D29: T -0.428, Q -0.04, S -0.248, R -0.285, A -0.205, H -0.249, M -0.299, C -0.542, Y -0.251, K -0.26, F -0.649, L -0.63, G -0.239, W -0.588, E -0.04, V -0.607, N -0.228
T26: N -0.392, R -0.457, S -0.014, E -0.536, L -0.758, K -0.399, I -0.635, P -0.553, H -0.285, W -0.898, Q -0.586, M -0.705, A -0.417, G -0.449, V -0.797, D -0.601, Y -0.89
L23: I -0.565, R -0.239, K -0.332, T -0.486, M 0.048, G -0.398, P -0.887, N -0.254, S -0.345, Y -0.139, Q -0.31
G35: F -0.183, M -0.174, R 0.016, Y -0.155, Q 0.025, E -0.076, I -0.367, W -0.239, D -0.415, C -0.113, L -0.453, A -0.016, H -0.06, V -0.345, P -0.612, T 0.052, N 0.008, S 0.037
G24: A -0.598, F -1, P -0.714, M -0.821, V -0.814, L -0.789, E -0.641, R -0.408, C -0.575, W -0.784, S -0.646, D -0.572, H -0.466, T -0.914, I -0.94, Y -0.86, K -0.295
V41: T 0.009, I -0.157, M 0.012, W 0.004, Y -0.12, N 0.008, G 0.021, R -0.023, E 0.034, P -0.042, A 0.017, D 0.047, K 0.065, H 0.039, C 0.036, S -0.017
L32: S -0.197, V -0.448, N 0.091, K 0.493, F -0.25, W -0.015, R -0.033
S43: F -0.57, G -0.12, C -0.042, H 0.007, I -0.768, A -0.209, E -0.031, D 0.093
A33: E -0.172, N -0.477, C -0.19, T -0.113, I -0.138, D -0.284, H -0.002, L -0.304, M -0.077, F -0.329, W -0.021, K -0.264, Y -0.314, S -0.091, R -0.102, Q 0.015
Q27: H 0.02, D -0.356, P -0.028, V -0.115, A -0.071, E -0.004, S -0.125, L -0.167, K -0.132, I -0.222, R -0.201, Y 0.084, N -0.419, T 0.04, C 0.045
L34: A -0.646, S -0.955, H -1.2, V -0.329, Q -0.948, Y -0.895, I -0.132, W -0.973, C -0.224, K -0.441, G -0.854, R -0.773, E -1.01, T -0.742, D -0.76, N -0.796, M -0.035, F -0.732
F42: C -0.006, L 0.053, S -0.268, K -0.148, N -0.582, A -0.012, G -0.397, Q 0.072, R -0.292, M -0.004, I -0.037, P -0.368, Y 0.056, T -0.061, H -0.138
